The record followed here is article PMC3154026.

This assay deals with TamL, FAD-dependent oxidase (flavoprotein) of the tirandamycin biosynthetic gene cluster (Streptomyces sp. 307-9). Kind of assay: crystal structure.

“TamL, FAD-dependent oxidase (flavoprotein) of the tirandamycin biosynthetic gene cluster (enzyme)” yielded a stoichiometry N of 2.

Usually stoichiometry N stands for a count of units in the complex or per binding partner.
